Reference: publication PMC6825195

Experiments:
[1] = target: cytochrome c oxidase, regulatory competent, from bovine liver (bovine)
[2] = target: apoptotic protease-activating factor 1 (mouse (endogenous in Cytc knockout embryonic fibroblasts)) (UniProt O88879)
Sequence of UniProt O88879 (O88879 whole entry): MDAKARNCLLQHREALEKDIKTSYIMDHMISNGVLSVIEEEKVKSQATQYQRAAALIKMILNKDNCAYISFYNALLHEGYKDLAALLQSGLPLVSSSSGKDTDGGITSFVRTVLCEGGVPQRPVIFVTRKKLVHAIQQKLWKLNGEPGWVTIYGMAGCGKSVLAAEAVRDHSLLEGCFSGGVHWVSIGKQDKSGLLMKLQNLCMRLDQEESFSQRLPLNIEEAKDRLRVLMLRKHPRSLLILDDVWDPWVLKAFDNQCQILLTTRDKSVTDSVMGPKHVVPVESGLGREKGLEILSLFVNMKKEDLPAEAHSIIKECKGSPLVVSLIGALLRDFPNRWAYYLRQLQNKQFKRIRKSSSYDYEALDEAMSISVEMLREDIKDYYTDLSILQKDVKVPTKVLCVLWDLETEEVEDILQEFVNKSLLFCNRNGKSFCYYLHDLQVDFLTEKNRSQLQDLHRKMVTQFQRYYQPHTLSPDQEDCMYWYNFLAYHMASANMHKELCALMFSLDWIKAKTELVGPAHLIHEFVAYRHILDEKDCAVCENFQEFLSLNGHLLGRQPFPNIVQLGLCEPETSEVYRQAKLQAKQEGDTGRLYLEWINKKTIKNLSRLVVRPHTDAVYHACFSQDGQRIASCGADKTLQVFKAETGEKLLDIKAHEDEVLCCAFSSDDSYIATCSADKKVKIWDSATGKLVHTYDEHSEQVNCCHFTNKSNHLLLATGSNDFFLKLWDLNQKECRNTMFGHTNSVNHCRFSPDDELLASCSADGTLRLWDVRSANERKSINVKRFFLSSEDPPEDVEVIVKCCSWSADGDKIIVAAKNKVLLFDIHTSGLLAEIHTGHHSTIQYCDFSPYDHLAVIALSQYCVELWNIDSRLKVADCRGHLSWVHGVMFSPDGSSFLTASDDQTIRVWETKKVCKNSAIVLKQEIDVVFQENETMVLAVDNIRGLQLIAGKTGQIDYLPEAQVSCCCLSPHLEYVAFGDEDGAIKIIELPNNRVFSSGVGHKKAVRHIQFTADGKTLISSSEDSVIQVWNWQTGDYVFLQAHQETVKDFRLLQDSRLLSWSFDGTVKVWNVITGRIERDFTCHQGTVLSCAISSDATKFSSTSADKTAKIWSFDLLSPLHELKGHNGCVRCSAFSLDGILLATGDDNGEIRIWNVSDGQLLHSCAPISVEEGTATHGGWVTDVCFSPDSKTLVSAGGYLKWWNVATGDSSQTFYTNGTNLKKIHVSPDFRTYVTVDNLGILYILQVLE

Substance	apparent Km of Cytc in the reaction with cow liver COX (150 nM; 0-20 µM Cytc; oxygen consumption, polarography, 25 °C) [1]	oxygen consumption rate (turnover) of purified cow liver COX with 0-20 µM Cytc, reduction compared to WT Cytc (% reduction compared to WT) [1]	cell-free caspase-3 activity (DEVD-R110 cleavage) in cytosolic extract of Cytc knockout fibroblasts with 20 µg/mL Cytc, reduction compared to WT (% reduction compared to WT) [2]
T58I cytochrome c (from UniProt P62897 1-105) (natural protein)	2.5 µM	25	60
wild-type cytochrome c (rodent somatic) (from UniProt P62897 1-105) (natural protein)	3 µM	–	–
T58A cytochrome c (from UniProt P62897 1-105) (natural protein)	4.5 µM	–	50
phosphomimetic T58E cytochrome c (from UniProt P62897 1-105) (natural protein)	3 µM	45	70
